Measurements published in patent publication US20070149456A1, “Epithelial sodium channel inhibiting agents and uses therefor” (University of Pittsburgh, priority 2005, published 2007).

Target: T1, mouse ENaC (Mus musculus, UniProt Q61180+Q9WU38+Q9WU39, DEL206-231)
T1 construct: expressed in transfected cells; host or cells: Xenopus laevis oocytes (cRNA injection)
T1 sequence (Q61180 with tags, fused parts or gaps DEL206-231): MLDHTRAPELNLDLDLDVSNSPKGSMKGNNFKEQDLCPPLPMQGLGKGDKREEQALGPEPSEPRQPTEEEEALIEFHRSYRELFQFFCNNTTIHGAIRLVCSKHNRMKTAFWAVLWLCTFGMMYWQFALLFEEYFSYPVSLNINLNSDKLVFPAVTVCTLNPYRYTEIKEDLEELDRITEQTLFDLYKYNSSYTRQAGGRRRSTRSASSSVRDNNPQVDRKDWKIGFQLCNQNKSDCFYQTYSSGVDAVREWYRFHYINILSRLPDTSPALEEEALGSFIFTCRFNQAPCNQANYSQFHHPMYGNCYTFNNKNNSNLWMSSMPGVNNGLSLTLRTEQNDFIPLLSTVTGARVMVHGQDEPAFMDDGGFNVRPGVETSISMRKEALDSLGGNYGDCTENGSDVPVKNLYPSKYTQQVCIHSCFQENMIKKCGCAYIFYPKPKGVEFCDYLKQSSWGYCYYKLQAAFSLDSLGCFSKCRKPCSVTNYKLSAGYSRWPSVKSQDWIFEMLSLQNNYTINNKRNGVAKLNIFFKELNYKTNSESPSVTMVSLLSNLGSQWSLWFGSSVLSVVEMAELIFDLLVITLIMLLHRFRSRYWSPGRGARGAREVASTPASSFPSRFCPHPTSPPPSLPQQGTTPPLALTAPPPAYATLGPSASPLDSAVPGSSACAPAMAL
T1 sequence (Q9WU38 1-638): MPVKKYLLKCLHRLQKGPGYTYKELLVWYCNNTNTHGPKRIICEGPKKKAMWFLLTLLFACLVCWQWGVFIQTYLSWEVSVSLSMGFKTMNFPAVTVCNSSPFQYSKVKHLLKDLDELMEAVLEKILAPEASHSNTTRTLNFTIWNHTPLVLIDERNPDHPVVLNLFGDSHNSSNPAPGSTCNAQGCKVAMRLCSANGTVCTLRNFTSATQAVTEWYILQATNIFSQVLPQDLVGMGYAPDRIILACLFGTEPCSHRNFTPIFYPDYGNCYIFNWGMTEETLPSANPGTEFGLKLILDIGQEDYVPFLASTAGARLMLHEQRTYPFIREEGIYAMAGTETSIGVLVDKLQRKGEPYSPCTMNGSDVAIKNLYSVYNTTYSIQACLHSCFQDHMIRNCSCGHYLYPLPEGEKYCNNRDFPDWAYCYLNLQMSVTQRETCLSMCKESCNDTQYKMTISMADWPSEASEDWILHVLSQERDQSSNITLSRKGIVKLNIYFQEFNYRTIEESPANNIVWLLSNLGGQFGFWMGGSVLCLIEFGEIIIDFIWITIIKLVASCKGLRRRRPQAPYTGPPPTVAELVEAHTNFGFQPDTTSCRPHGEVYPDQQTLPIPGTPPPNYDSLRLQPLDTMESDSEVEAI
T1 sequence (Q9WU39 1-655): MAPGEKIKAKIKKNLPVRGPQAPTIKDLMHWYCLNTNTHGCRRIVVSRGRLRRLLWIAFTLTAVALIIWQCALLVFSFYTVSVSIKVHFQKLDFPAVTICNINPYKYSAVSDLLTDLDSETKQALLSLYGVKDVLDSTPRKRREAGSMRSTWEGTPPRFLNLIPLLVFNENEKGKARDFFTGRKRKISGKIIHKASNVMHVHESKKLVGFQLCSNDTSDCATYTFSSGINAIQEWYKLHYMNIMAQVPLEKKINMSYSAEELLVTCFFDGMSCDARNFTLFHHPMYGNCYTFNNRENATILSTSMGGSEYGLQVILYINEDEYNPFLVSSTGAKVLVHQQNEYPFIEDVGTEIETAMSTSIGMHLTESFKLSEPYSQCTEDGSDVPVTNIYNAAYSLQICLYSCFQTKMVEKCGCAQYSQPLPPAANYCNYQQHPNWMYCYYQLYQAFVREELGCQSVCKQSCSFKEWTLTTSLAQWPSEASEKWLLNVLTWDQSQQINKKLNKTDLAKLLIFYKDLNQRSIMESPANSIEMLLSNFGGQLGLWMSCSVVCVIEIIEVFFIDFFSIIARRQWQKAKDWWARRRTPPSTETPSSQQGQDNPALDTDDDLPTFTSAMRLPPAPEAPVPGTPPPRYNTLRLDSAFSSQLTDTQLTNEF
Assay: Two-electrode voltage clamp, amiloride-sensitive whole cell Na+ current in Xenopus oocytes expressing wild-type αβγ ENaC
Type: cell-based
Conditions: peptide 10 μM (FIG. 3B)
Source text: Oocyte Expression—cRNAs for α, β, γ mouse ENaC (wild-type and mutant) subunits and mouse prostasin were synthesized with T3 or T7 m-Message mMachineTM (Ambion, Austin, Tex.). Subunits carrying furin cleavage consensus site mutations and the corresponding wild-type subunits have amino-terminal HA and carboxyl-terminal V5 tags (Hughey, R. P., Bruns, J. B., Kinlough, C. L., Harkleroad, K. L., Tong, Q., Carattino, M. D., Johnson, J. P., Stockand, J. D., and Kleyman, T. R. (2004) J. Biol. Chem. 279, 18111-18114 18). Stage V-VI Xenopus laevis oocytes were pretreated with 1.5 mg/ml of type IV collagenase and injected with 0.5-2 ng of cRNA/subunit. Injected oocytes were maintained as previously reported (Carattino, M. D., Hill, W. G., and Kleyman, T. R. (2003), Arachidonic Acid Regulates Surface Expression of Epithelial Sodium Channels, J Biol. Chem. 278, 36202-36213 29).
Two-electrode Voltage Clamp—Two-electrode voltage clamp (TEV) was performed as previously described (Carattino, M. D., Hill, W. G., and Kleyman, T. R. (2003) J Biol. Chem. 278, 36202-36213 29). The extracellular solution (TEV solution) was (in mM): 110 NaCl, 2 KCl, 1.54 CaCl2, 10 HEPES, pH 7.4, or otherwise as indicated. […] Experiments with oocytes co-expressing ENaC and prostasin and the corresponding controls were performed in the presence of aprotinin (1 μM) to impede any potential degradation of α-26 by prostasin.
Data and Statistical Analyses—and mean time of inhibition are expressed as the mean with a 95% confidence interval (CI); otherwise, data were expressed as the mean ±S.E. (n), where “n” equals the number of independent experiments analyzed. IC50 was estimated from normalized currents plotted as a function of the peptide concentration fitted, as shown in Equation 1 y=t/(1+10^(logX−log/C50)) (Eq. 1) where y is the response variable, X is the concentration of peptide, and IC50 is the concentration of peptide that provokes a response half way between the baseline (t) and maximum response. […] Results

Sequence	block of ENaC currents by related peptides
DLEGALPHPLQELETPPPPNPAESAE (Ac-DLEGALPHPLQELETPPPPNPAESAE-NH2) [R/E]	significant reduction in the block
DLRGALAHALQRLRTAAAANAARSAR (Ac-DLRGALAHALQRLRTAAAANAARSAR-NH2) [P/A]	significant reduction in the block
